Laboratory results as given in patent US20210340217A1, “NOVEL PEPTIDES AND COMBINATION OF PEPTIDES FOR USE IN IMMUNOTHERAPY AGAINST OVARIAN CANCER AND OTHER CANCERS” (Immatics Biotechnologies GmbH, priority 2017, published 2021).

Target: HLA-B*44:02 (Homo sapiens, UniProt P01889, A223V/A65T/A93T/A95T/D201E/D98Y/E176V/E187L/E204Q/E69K/G107R/H137Y/K202T/L105A/L119I/N104T/N87E/Q56L/Q94N/R106L/R155S/R180D/S101N/S121R/S35A/S48T/T118I/V36M/W191S/Y140D/Y91S)
Assay: MHC binding assay (UV-ligand exchange, beta2m ELISA)
Conditions: peptide exchange yield
Description: Candidate peptides for T cell based therapies according to the present invention were further tested for their MHC binding capacity (affinity). The individual peptide-MHC complexes were produced by UV-ligand exchange, where a UV-sensitive peptide is cleaved upon UV-irradiation, and exchanged with the peptide of interest as analyzed. Only peptide candidates that can effectively bind and stabilize the peptide-receptive MHC molecules prevent dissociation of the MHC complexes. To determine the yield of the exchange reaction, an ELISA was performed based on the detection of the light chain (β2m) of stabilized MHC complexes. The assay was performed as generally described in Rodenko et al. (Rodenko et al., 2006).
96 well MAXISorp plates (NUNC) were coated over night with 2 ug/ml streptavidin in PBS at room temperature, washed 4× and blocked for 1 h at 37° C. in 2% BSA containing blocking buffer. Refolded HLA-A*02:01/MLA-001 monomers served as standards, covering the range of 15-500 ng/ml. Peptide-MHC monomers of the UV-exchange reaction were diluted 100-fold in blocking buffer. Samples were incubated for 1 h at 37° C., washed four times, incubated with 2 ug/ml HRP conjugated anti-β2m for 1h at 37° C., washed again and detected with TMB solution that is stopped with […]. Absorption was measured at 450 nm. Candidate peptides that show a high exchange yield (preferably higher than 50%, most preferred higher than 75%) are generally preferred for a generation and production of antibodies or fragments thereof, and/or T cell receptors or fragments thereof, as they show sufficient avidity to the MHC molecules and prevent dissociation of the MHC complexes.

Row | Substance | Peptide exchange
1 | 205 (SEITRIEM; listed as Homo sapiens) [compound 205] | “++” (>20% = ++)
2 | 175 (AEIEPKADG; listed as Homo sapiens) [compound 175] | “++” (>20% = ++)
3 | 185 (AERQPGAASL; listed as Homo sapiens) [compound 185] | “++” (>20% = ++)
4 | 407 (AEHEGVSVL; listed as Homo sapiens) [compound 407] | “++” (>20% = ++)
5 | 213 (KESIPRWYY; listed as Homo sapiens) [compound 213] | “++” (>20% = ++)
6 | 178 (NELFRDGVNW; listed as Homo sapiens) [compound 178] | “+++” (>50 = +++)
7 | 427 (HESSSHHDL; listed as Homo sapiens) [compound 427] | “++” (>20% = ++)
8 | 211 (EEKVFPSPLW; listed as Homo sapiens) [compound 211] | “+++” (>50 = +++)
9 | 191 (EEDAALFKAW; listed as Homo sapiens) [compound 191] | “+++” (>50 = +++)
10 | 176 (AEIEPKADGSW; listed as Homo sapiens) [compound 176] | “+++” (>50 = +++)
11 | 204 (RETSTSEETSL; listed as Homo sapiens) [compound 204] | “+++” (>50 = +++)
12 | 210 (VEAADIFQNF; listed as Homo sapiens) [compound 210] | “+++” (>50 = +++)
13 | 415 (REEDAALFKAW; listed as Homo sapiens) [compound 415] | “+++” (>50 = +++)
14 | 421 (GEPATTVSL; listed as Homo sapiens) [compound 421] | “++” (>20% = ++)
15 | 438 (SEVDSPNVL; listed as Homo sapiens) [compound 438] | “+++” (>50 = +++)
16 | 414 (EDAALFKAW; listed as Homo sapiens) [compound 414] | “++” (>20% = ++)
17 | 57 (QESDLRLFL; listed as Homo sapiens) [compound 57] | “+++” (>50 = +++)
18 | 58 (GEMEQKQL; listed as Homo sapiens) [compound 58] | “++” (>20% = ++)
19 | 396 (REASGLLSL; listed as Homo sapiens) [compound 396] | “+++” (>50 = +++)
20 | 184 (AELEALTDLW; listed as Homo sapiens) [compound 184] | “+++” (>50 = +++)
21 | 56 (SEPDTTASW; listed as Homo sapiens) [compound 56] | “+++” (>50 = +++)
22 | 209 (TEVSRTEL; listed as Homo sapiens) [compound 209] | “++” (>20% = ++)
23 | 399 (RELLHLVTL; listed as Homo sapiens) [compound 399] | “+++” (>50 = +++)
24 | 203 (IEHSTQAQDTL; listed as Homo sapiens) [compound 203] | “++” (>20% = ++)

Row | Substance | Peptide exchange
25 | 215 (SEDGLPEGIHL; listed as Homo sapiens) [compound 215] | “++” (>20% = ++)
26 | 52 (AEFLLRIFL; listed as Homo sapiens) [compound 52] | “++” (>20% = ++)
27 | 206 (SESVTSRTSY; listed as Homo sapiens) [compound 206] | “+++” (>50 = +++)
28 | 436 (REPGDIFSEL; listed as Homo sapiens) [compound 436] | “++” (>20% = ++)
29 | 420 (FESHSTVSA; listed as Homo sapiens) [compound 420] | “+” (>10% = +)
30 | 199 (REIDESLIFY; listed as Homo sapiens) [compound 199] | “+++” (>50 = +++)
31 | 54 (AEITITTQTGY; listed as Homo sapiens) [compound 54] | “+++” (>50 = +++)
32 | 193 (LEAQQEAL; listed as Homo sapiens) [compound 193] | “++” (>20% = ++)
33 | 182 (KEATEAQSL; listed as Homo sapiens) [compound 182] | “+++” (>50 = +++)
34 | 409 (REFVLSKGDAGL; listed as Homo sapiens) [compound 409] | “+++” (>50 = +++)
35 | 412 (QEILTQVKQ; listed as Homo sapiens) [compound 412] | “++” (>20% = ++)
36 | 424 (TEFPLFSAA; listed as Homo sapiens) [compound 424] | “+” (>10% = +)
37 | 187 (GEAQTRIAW; listed as Homo sapiens) [compound 187] | “+++” (>50 = +++)
38 | 432 (EEQYIAQF; listed as Homo sapiens) [compound 432] | “+” (>10% = +)
39 | 59 (SENVTMKVV; listed as Homo sapiens) [compound 59] | “+++” (>50 = +++)
40 | 437 (TEAVVTNEL; listed as Homo sapiens) [compound 437] | “++” (>20% = ++)
41 | 406 (EDGRLVIEF; listed as Homo sapiens) [compound 406] | “+” (>10% = +)
42 | 434 (KEAIREHQM; listed as Homo sapiens) [compound 434] | “++” (>20% = ++)
43 | 192 (YEFKFPNRL; listed as Homo sapiens) [compound 192] | “+++” (>50 = +++)
44 | 435 (REEFVSIDHL; listed as Homo sapiens) [compound 435] | “++” (>20% = ++)
45 | 189 (KEFLFNMY; listed as Homo sapiens) [compound 189] | “++” (>20% = ++)
46 | 419 (HEFGHVLGL; listed as Homo sapiens) [compound 419] | “++” (>20% = ++)
47 | 180 (REAGDEFELRY; listed as Homo sapiens) [compound 180] | “++” (>20% = ++)
48 | 402 (RELANDELIL; listed as Homo sapiens) [compound 402] | “++” (>20% = ++)

Row | Substance | Peptide exchange
49 | 426 (PEKTTHSF; listed as Homo sapiens) [compound 426] | “+” (>10% = +)
50 | 405 (NEIWTHSY; listed as Homo sapiens) [compound 405] | “+” (>10% = +)
51 | 179 (REAGDEFEL; listed as Homo sapiens) [compound 179] | “++” (>20% = ++)
52 | 183 (YEKGIMQKV; listed as Homo sapiens) [compound 183] | “++” (>20% = ++)
53 | 410 (SEDPSKLEA; listed as Homo sapiens) [compound 410] | “+” (>10% = +)
54 | 411 (LELPPILVY; listed as Homo sapiens) [compound 411] | “+” (>10% = +)
55 | 418 (FEDAQGHIW; listed as Homo sapiens) [compound 418] | “+++” (>50 = +++)
56 | 53 (MEHPGKLLF; listed as Homo sapiens) [compound 53] | “+++” (>50 = +++)
57 | 398 (SFEQVVNELF; listed as Homo sapiens) [compound 398] | “++” (>20% = ++)
58 | 425 (SEVPLPMAI; listed as Homo sapiens) [compound 425] | “+++” (>50 = +++)
59 | 174 (AEATARLNVF; listed as Homo sapiens) [compound 174] | “++++” (>75% = ++++)
60 | 177 (TEVGTMNLF; listed as Homo sapiens) [compound 177] | “+++” (>50 = +++)
61 | 417 (AEHFSMIRA; listed as Homo sapiens) [compound 417] | “++” (>20% = ++)
62 | 207 (TEARATSDSW; listed as Homo sapiens) [compound 207] | “+++” (>50 = +++)
63 | 181 (GEGPKTSW; listed as Homo sapiens) [compound 181] | “++” (>20% = ++)
64 | 55 (HETETRTTW; listed as Homo sapiens) [compound 55] | “+++” (>50 = +++)
65 | 202 (HESEATASW; listed as Homo sapiens) [compound 202] | “+++” (>50 = +++)
66 | 195 (AEDKRHYSV; listed as Homo sapiens) [compound 195] | “++” (>20% = ++)
67 | 201 (AETILTFHAF; listed as Homo sapiens) [compound 201] | “+++” (>50 = +++)
68 | 190 (YEVARILNL; listed as Homo sapiens) [compound 190] | “++” (>20% = ++)
69 | 413 (IEALSGKIEL; listed as Homo sapiens) [compound 413] | “++” (>20% = ++)
70 | 214 (VEQTRAGSLL; listed as Homo sapiens) [compound 214] | “++” (>20% = ++)
71 | 198 (QEAARAAL; listed as Homo sapiens) [compound 198] | “++” (>20% = ++)
72 | 423 (SEVPTGTTA; listed as Homo sapiens) [compound 423] | “++” (>20% = ++)
